Reference: publication doi:10.1101/2021.01.08.425994 (bioRxiv, 2021)

Molecular target: T1, His-tagged mouse CRY2 D325H PHR domain (residues 1-512) (mouse, UniProt Q9R194 1-512, D325H)
T1 sequence (looked up): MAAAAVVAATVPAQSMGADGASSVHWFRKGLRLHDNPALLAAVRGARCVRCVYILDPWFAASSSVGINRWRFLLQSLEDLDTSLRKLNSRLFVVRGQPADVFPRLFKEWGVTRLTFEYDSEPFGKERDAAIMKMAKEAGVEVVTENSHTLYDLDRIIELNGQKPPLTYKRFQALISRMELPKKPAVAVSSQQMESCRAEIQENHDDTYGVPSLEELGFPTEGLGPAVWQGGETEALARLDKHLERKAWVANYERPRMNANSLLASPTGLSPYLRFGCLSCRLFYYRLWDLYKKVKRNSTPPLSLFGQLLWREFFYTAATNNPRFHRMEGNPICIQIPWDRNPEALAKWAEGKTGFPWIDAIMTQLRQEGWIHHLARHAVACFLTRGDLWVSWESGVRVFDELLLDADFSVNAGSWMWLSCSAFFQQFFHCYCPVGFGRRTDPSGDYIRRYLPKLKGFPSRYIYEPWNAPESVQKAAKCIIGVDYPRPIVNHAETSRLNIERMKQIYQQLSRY
Experiment: BLI

B1: CLOCK:BMAL1 PAS domain core (PAS-AB domain heterodimer), biotinylated (complex)
chain 1: ASEIRQDWKPTFLSNEEFTQLMLEALDGFFLAIMTDGSIIYVSESVTSLLEHLPSDLVDQSIFNFIPEGEHSEVYKILSTHLLESDSLTPEYLKSKNQLEFCCHMLRGTIDPKEPSTYEYVRFIGNFKSLTSVSTSTHNGFEGTIQRTHRPSYEDRVCFVATVRLATPQFIKEMCTVEEPNEEFTSRHSLEWKFLFLDHRAPPIIGYLPFEVLGTSGYDYYHVDDLENLAKCHEHLMQYGKGKSCYYRFLTKGQQWIWLQTHYYITYHQWNSRPEFIVCTHTVVSYAEVRAERRRELGIEESL
chain 2: not shown
B1 showed a Kd of 1800 nM.
